# Reference: the supplement of paper PMC9233669
# Variants at the floor of the assay were thinned out.
# Key:
# biotinyl-Ile-oxazolone = assay: self-aminoacylation, catalytic enhancement (BIO) (fold over background); higher = more active; k-Seq, kA / k0A0; sequences stand for … in GGGAAUGGAUCCACAUCUACGAAUUC…UUCACUGCAGACUUGACGAAGCUG
# How it was run: (§1)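 Working in 50 μL HEPES/NaCl/KCl/MgCl2/CaCl2 buffer with 5% acetonitrile at pH 6.9–7.0, mutagenized RNA pools (0.43 μM; 21-nt variable region) were reacted with 2–1250 μM of each biotinyl-aminoacyl-oxazolone for 90 minutes at room temperature. Streptavidin capture followed, with quantification by triplicate qPCR and Illumina sequencing. Catalytic enhancement is reported as median kA over the uncatalyzed rate, the low-activity peak of a bimodal Gaussian fit to the data.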
# biotinyl-Leu-oxazolone = assay: self-aminoacylation, catalytic enhancement (BLO) (fold over background); higher = more active; k-Seq, kA / k0A0; sequences stand for … in GGGAAUGGAUCCACAUCUACGAAUUC…UUCACUGCAGACUUGACGAAGCUG
# How it was run: as §1
# biotinyl-Trp-oxazolone = assay: self-aminoacylation, catalytic enhancement (BWO) (fold over background); higher = more active; k-Seq, kA / k0A0; sequences stand for … in GGGAAUGGAUCCACAUCUACGAAUUC…UUCACUGCAGACUUGACGAAGCUG
# How it was run: as §1
# biotinyl-Met-oxazolone = assay: self-aminoacylation, catalytic enhancement (BMO) (fold over background); higher = more active; k-Seq, kA / k0A0; sequences stand for … in GGGAAUGGAUCCACAUCUACGAAUUC…UUCACUGCAGACUUGACGAAGCUG
# How it was run: as §1
# biotinyl-Val-oxazolone = assay: self-aminoacylation, catalytic enhancement (BVO) (fold over background); higher = more active; k-Seq, kA / k0A0; sequences stand for … in GGGAAUGGAUCCACAUCUACGAAUUC…UUCACUGCAGACUUGACGAAGCUG
# How it was run: as §1
# biotinyl-Phe-oxazolone = assay: self-aminoacylation, catalytic enhancement (BFO) (fold over background); higher = more active; k-Seq, kA / k0A0; sequences stand for … in GGGAAUGGAUCCACAUCUACGAAUUC…UUCACUGCAGACUUGACGAAGCUG
# How it was run: as §1
Sequence,self-aminoacylation (biotinyl-Ile-oxazolone),self-aminoacylation (biotinyl-Leu-oxazolone),self-aminoacylation (biotinyl-Trp-oxazolone),self-aminoacylation (biotinyl-Met-oxazolone),self-aminoacylation (biotinyl-Val-oxazolone),self-aminoacylation (biotinyl-Phe-oxazolone)
AUUGACCUAGGUCAUCGGGUU [Fam2.2 aminoacylation ribozyme variant],7.25,18.8,12.2,13.9,6.49,98.6
AACUUUGCUAAUAGUCGUAAG [Fam3.1 aminoacylation ribozyme variant],1.44,1.59,2.33,1.21,1.28,3.97
CCACACUACAAACAAUCGGUC [Fam1B.1 aminoacylation ribozyme variant],0.904,0.652,0.993,0.642,0.883,1.41
AUUACCCUUGUCAUCGAGCGA [Fam2.1 aminoacylation ribozyme variant],1.49,1.67,0.631,1.12,1.19,0.755
CCACACUUCAAGCAAUCGGUU [Fam1B.1 aminoacylation ribozyme variant],1.35,1.38,7.61,1.36,1.59,9.59
AAGUUUCCUAAUAGUCCCAAG [Fam3.1 aminoacylation ribozyme variant],1.57,1,1.48,1.5,1.73,2.59
CCACUUCAAACAAUGGGUCUG [Fam1A.1 aminoacylation ribozyme variant],1.07,0.97,0.691,0.887,1.03,0.725
CUACUUCAAACGAUCGGGCUG [Fam1A.1 aminoacylation ribozyme variant],1.49,1.23,1.28,1.09,1.45,1.11
AUUCACUUACGUCAUCGGGUG [Fam2.2 aminoacylation ribozyme variant],3.35,7.03,5.63,5.61,3.36,38.4
GUUCAACUAGGUCAUCGGGUG [Fam2.2 aminoacylation ribozyme variant],4.28,6.94,6.75,5.04,4.16,42.6
AAGUUUGCUAAUAGUCAGAAG [Fam3.1 aminoacylation ribozyme variant],0.943,0.808,2.22,1.01,0.937,2.61
UCUACCCUGGUCAUCGAGUGA [Fam2.1 aminoacylation ribozyme variant],5.18,9.36,12.6,10.4,5.79,14.6
AUUAACCUGGUCAUCGAGAGA [Fam2.1 aminoacylation ribozyme variant],0.888,0.844,0.872,0.749,0.783,0.933
CUACUUCAAACAAUCGCUCCG [Fam1A.1 aminoacylation ribozyme variant],0.768,0.775,1.02,0.713,0.926,1.08
CCACACAUCAAGCUAUCGGUC [Fam1B.1 aminoacylation ribozyme variant],0.954,0.914,0.735,0.888,1.15,0.819
ACACACUUCAAGCAAUUGGUC [Fam1B.1 aminoacylation ribozyme variant],1.09,0.945,1.29,1.01,1.17,1.61
AGUCACCUAGGUCAUCGCGUG [Fam2.2 aminoacylation ribozyme variant],8.4,18.3,14.3,14.4,9.1,97
AUUACCCUGAUCAUCGAAUGA [Fam2.1 aminoacylation ribozyme variant],0.936,0.898,0.561,0.93,0.871,0.602
CUACUUCAAACAACCUGUCUG [Fam1A.1 aminoacylation ribozyme variant],0.74,0.589,0.325,0.52,0.736,0.494
AAGGUUGCUAAUAGUCGAAAG [Fam3.1 aminoacylation ribozyme variant],1.51,0.938,2.33,1.36,1.44,6.22
CCACACUUUAAGCAAUCGGCC [Fam1B.1 aminoacylation ribozyme variant],1.52,1.22,1.85,1.58,1.74,1.64
UAGUUUGCUAAUAAUCGCAAG [Fam3.1 aminoacylation ribozyme variant],1.11,0.887,0.875,1.04,1.12,1.77
AAGGUUGCUCAUAGUCGCAAG [Fam3.1 aminoacylation ribozyme variant],1.46,1.63,1.5,1.57,1.25,4.12
GCACACUUCAAGCCAUCGGUC [Fam1B.1 aminoacylation ribozyme variant],2.81,2.81,3.87,2.32,2.57,8.33
GUUACCCUGGUCAUCAAGUGA [Fam2.1 aminoacylation ribozyme variant],2.37,3.12,4.39,3.81,2.08,11
CUACUUCAAACCAACGGUCUG [Fam1A.1 aminoacylation ribozyme variant],0.786,0.587,0.556,0.68,1.02,1.44

Sequence,self-aminoacylation (biotinyl-Ile-oxazolone),self-aminoacylation (biotinyl-Leu-oxazolone),self-aminoacylation (biotinyl-Trp-oxazolone),self-aminoacylation (biotinyl-Met-oxazolone),self-aminoacylation (biotinyl-Val-oxazolone),self-aminoacylation (biotinyl-Phe-oxazolone)
AUUCACCUAGGUCAUCGUAUG [Fam2.2 aminoacylation ribozyme variant],0.593,0.553,0.207,0.503,0.737,0.528
UUACUUCAAACAAUGGGUCUG [Fam1A.1 aminoacylation ribozyme variant],1.05,1.06,1.23,1.03,1.05,0.83
AGGUUUGAUAAUAGUCGCAAG [Fam3.1 aminoacylation ribozyme variant],1.55,1.67,1.8,1.57,1.54,3.51
UUUCACCUAGGGCAUCGGGUG [Fam2.2 aminoacylation ribozyme variant],3.17,3.49,3.56,3.15,3.9,26
CCACACUUCAAACAAUCCGUC [Fam1B.1 aminoacylation ribozyme variant],0.83,0.682,1.2,0.559,0.993,1.35
CUACUUAAAAAAAUCGGUCUG [Fam1A.1 aminoacylation ribozyme variant],0.88,0.768,0.49,0.806,0.804,0.661
AGGUUUGCUAAUAAUCGCAAG [Fam3.1 aminoacylation ribozyme variant],0.899,0.822,0.725,0.753,0.949,1.91
AUUCACCUAGGUCAAGGGGUG [Fam2.2 aminoacylation ribozyme variant],1.37,1.41,1.3,1.43,1.3,4.67
CCACACUUCAAGCAAGCAGUC [Fam1B.1 aminoacylation ribozyme variant],0.721,0.861,0.475,0.645,0.857,0.916
CUACUUCAAACAAUCGACCUG [Fam1A.1 aminoacylation ribozyme variant],0.608,0.45,0.661,0.545,0.636,1.6
AUCCACCUAGGUCAUCGGGUU [Fam2.2 aminoacylation ribozyme variant],9.74,19,12,14.3,7.64,71.1
AUUCGCCUAGGUCAUCUGGUG [Fam2.2 aminoacylation ribozyme variant],2.24,3.87,3.3,2.96,2.23,19.3
AAAUAUGCUAAUAGUCGCAAG [Fam3.1 aminoacylation ribozyme variant],2.03,1.44,2.25,1.45,1.55,2.27
AUUACCCUGGACAUCGAGUGC [Fam2.1 aminoacylation ribozyme variant],0.87,0.793,0.573,0.807,0.852,1.19
AUUCACCUAACUCAUCGGGUG [Fam2.2 aminoacylation ribozyme variant],2.36,4.47,3.17,4.05,2.41,22.8
AUUCACCUAGCUCAACGGGUG [Fam2.2 aminoacylation ribozyme variant],1.37,2.28,1.95,1.88,1.36,6.75
CUACUUCAAACAAUCGUUUUG [Fam1A.1 aminoacylation ribozyme variant],0.758,0.568,0.576,0.603,0.669,0.98
UUUACCCUGGUCAUCGCGUGA [Fam2.1 aminoacylation ribozyme variant],7.82,16.9,19,18.9,9.57,128
AAGUUUGCUAGUACUCGCAAG [Fam3.1 aminoacylation ribozyme variant],0.894,0.773,0.574,0.907,0.878,0.836
AUCCACCUUGGUCAUCGGGUG [Fam2.2 aminoacylation ribozyme variant],4.12,7.29,6.99,6.42,5.35,45.5
AUUCAGCUAGGGCAUCGGGUG [Fam2.2 aminoacylation ribozyme variant],4.72,7.92,6.75,6.69,4.65,64.3
GUUACCCUGGUCAUCGCGUGA [Fam2.1 aminoacylation ribozyme variant],11.2,25.2,26.8,25.3,14.8,212
AUUCACCUAGGUCAUCAGGCG [Fam2.2 aminoacylation ribozyme variant],1.26,1.54,1.87,1.47,1.32,1.02
ACACUCUUCAAGCAAUCGGUC [Fam1B.1 aminoacylation ribozyme variant],0.997,1.11,2.4,0.9,1.08,4.37
ACACACUUCAAGCAAUCGGAC [Fam1B.1 aminoacylation ribozyme variant],1.1,0.979,1.43,0.97,1.02,1.42
